What all share (assay): SPR, antibody captured, C2 as analyte;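 also: biacore SPR at 37 °C, anti-C2 mAbs captured via goat anti-human IgG on CM5 chips, double-referenced sensorgrams fit to a 1:1 kinetic or steady-state model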
One experiment concerns the target T1, human C2 E645A (human, UniProt P06681 21-752).
T1 sequence: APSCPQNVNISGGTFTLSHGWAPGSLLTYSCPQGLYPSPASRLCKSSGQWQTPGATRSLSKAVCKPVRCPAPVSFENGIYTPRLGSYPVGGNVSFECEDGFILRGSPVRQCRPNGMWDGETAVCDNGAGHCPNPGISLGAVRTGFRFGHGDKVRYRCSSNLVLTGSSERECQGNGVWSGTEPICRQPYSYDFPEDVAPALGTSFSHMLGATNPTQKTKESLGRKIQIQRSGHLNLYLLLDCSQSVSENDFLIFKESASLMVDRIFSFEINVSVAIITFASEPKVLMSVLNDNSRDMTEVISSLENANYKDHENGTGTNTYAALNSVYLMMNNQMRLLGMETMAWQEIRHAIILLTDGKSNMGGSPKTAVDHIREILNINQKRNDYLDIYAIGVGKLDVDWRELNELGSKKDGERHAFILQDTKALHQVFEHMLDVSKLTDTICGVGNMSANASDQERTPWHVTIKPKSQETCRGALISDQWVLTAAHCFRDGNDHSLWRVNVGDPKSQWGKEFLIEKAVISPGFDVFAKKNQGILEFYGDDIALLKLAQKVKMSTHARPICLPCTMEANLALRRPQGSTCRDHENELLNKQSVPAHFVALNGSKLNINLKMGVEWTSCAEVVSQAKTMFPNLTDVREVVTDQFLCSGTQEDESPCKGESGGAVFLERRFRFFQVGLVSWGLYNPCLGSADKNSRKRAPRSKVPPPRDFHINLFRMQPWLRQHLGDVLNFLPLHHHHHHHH

For another experiment, the target named is T2, human C2 G707A (human, UniProt P06681 21-752).
T2 sequence: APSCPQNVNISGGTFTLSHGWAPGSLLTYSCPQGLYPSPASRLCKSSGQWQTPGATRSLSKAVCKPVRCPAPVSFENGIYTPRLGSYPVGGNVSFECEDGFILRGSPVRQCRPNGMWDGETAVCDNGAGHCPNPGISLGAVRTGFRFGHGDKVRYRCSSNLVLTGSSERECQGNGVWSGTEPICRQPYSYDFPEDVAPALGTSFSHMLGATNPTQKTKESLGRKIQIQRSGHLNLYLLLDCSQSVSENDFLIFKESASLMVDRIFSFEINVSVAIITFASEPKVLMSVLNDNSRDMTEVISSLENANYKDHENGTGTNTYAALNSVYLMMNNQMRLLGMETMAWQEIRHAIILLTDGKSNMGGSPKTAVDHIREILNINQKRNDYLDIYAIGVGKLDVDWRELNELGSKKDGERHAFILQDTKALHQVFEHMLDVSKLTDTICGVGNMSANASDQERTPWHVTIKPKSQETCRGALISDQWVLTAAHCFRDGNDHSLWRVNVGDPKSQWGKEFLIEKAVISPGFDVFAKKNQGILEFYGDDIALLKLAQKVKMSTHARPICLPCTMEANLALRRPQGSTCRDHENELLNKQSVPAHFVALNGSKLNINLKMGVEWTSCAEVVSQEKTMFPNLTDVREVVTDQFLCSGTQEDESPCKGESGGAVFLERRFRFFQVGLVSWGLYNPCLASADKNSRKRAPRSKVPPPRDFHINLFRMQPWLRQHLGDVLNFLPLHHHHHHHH

For a further experiment, the target named is T3, human C2 K443A (human, UniProt P06681 21-752).
T3 sequence: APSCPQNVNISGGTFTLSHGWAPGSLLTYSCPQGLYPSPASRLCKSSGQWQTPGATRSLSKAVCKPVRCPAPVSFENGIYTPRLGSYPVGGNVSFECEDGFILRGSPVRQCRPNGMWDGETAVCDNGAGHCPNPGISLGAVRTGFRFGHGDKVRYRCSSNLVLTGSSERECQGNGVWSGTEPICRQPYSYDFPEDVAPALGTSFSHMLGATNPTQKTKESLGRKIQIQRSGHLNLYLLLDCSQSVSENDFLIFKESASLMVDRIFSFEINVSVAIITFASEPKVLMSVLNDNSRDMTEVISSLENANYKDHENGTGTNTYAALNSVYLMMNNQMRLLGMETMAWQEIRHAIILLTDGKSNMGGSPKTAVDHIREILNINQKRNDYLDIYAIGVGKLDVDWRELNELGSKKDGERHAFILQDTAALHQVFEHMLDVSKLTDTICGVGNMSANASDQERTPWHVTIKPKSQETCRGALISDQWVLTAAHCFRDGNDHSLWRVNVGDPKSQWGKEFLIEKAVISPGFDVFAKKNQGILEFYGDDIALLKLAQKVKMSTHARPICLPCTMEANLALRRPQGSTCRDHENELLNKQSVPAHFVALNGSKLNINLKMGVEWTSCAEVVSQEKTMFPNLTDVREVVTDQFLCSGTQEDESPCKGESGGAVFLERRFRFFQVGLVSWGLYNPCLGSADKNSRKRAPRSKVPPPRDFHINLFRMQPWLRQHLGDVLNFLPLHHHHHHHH

For a further experiment, the target named is T4, human C2 T442A (human, UniProt P06681 21-752).
T4 sequence: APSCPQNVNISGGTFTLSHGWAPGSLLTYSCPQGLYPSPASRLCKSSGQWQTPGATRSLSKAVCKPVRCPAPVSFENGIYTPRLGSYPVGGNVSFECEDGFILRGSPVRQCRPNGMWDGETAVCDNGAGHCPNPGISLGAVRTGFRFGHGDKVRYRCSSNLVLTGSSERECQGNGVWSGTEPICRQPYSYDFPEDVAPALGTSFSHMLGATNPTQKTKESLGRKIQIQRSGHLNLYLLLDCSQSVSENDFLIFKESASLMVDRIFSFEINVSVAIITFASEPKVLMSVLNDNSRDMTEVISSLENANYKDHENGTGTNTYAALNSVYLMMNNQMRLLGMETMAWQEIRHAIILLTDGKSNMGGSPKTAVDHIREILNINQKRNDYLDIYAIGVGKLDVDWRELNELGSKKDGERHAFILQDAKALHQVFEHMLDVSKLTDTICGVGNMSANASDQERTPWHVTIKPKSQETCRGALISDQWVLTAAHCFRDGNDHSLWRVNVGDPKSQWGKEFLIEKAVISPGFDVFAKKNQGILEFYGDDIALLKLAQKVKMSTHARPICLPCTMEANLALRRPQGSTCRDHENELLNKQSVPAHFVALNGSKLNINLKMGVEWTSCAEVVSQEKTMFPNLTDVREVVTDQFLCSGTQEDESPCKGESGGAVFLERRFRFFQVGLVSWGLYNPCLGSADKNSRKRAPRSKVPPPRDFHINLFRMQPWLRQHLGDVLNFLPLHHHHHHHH

B1: RF16-226 (antibody, human IgG4 S228P, lambda)
heavy: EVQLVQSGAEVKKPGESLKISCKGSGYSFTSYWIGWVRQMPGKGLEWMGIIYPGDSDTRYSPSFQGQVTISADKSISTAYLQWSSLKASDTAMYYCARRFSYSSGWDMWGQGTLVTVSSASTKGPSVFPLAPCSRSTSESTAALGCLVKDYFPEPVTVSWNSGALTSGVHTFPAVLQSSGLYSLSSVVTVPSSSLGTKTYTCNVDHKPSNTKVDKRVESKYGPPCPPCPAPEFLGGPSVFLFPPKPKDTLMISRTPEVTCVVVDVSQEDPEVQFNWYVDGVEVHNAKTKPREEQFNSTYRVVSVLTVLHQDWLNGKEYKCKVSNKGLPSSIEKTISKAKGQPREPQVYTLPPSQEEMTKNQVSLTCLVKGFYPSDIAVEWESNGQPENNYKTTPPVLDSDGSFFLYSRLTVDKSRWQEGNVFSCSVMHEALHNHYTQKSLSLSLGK
light: SYELTQPPSVSVSPGQTARITCSGDALTSKYVAWYQQKSGLAPLLVIYEDTRRPSGIPAKFSGSSSGSVATLTISGAHGDDEADYYCYSTDASGHQRVFGGGTKLTVLSQPKAAPSVTLFPPSSEELQANKATLVCLISDFYPGAVTVAWKADGSPVKAGVETTKPSKQSNNKYAASSYLSLTPEQWKSHRSYSCQVTHEGSTVEKTVAPTECS
notes: pH-dependent anti-C2 antibody from a phage display library; also called WT
As usually defined, the Kd is the equilibrium constant for the complex coming apart. The low end stands for tighter binding, the high end for weaker binding. Regarding B1, the values for the Kd with human C2 E645A, with human C2 G707A and with human C2 T442A were 14 nM, 19.4 nM and 23.7 nM, respectively. In addition, in the experiment with human C2 K443A, the binding result is given as “no binding”.
